Columns and labels:
[1] = system: GFP-PEST expression in monoclonal HEK293 cell lines; assay: Flow cytometry kinetics of GFP-PEST expression after simeprevir removal; type: cell-based, human; conditions: 24h simeprevir induction, then removal
[2] = system: fluorogenic HCV protease FRET substrate; assay: HCV NS3/4A PR protease activity assay (fluorogenic peptide cleavage); type: biochemical; conditions: compared to WT
Protocol: To assess enzyme activity, cleavage of a fluorogenic HCV protease FRET substrate with an EDANS-DABCYL donor-quencher pair by purified HCV NS3/4A PR and the S139A mutant (RET 51, AnaSpec) was measured. When in close proximity (10-100 Å), as would be the case for the intact peptide, EDANS is excited at 340 nm, and the energy emitted from EDANS (at 490 nm) is quenched by DABCYL. Cleavage of the peptide by the HCV NS3/4A PR separates DABCYL from EDANS, allowing detection of fluorescence at 490 nm.
Serial dilutions of HCV NS3/4A PR and the active site mutant S139A in assay buffer (HEPES pH 7.8, 5 mM DTT, 100 mM NaCl, 10% glycerol, 0.01% CHAPS) were incubated with the fluorogenic substrate at room temperature. Fluorescence was measured after 3 hours using a PerkinElmer Envision plate reader (excitation 340 nm, emission 490 nm).

[3] = system: luciferase reporter gene in HEK293 cells; assay: Transcriptional regulation assay (split transcription factor), luciferase reporter; type: cell-based, human; conditions: protease variant-AD and DBD-PRSIM_23 (three tandem copies)
Excerpt: The iDimerize regulated transcription system (Takara) was used to test the ability of PRSIM-based CIDs to regulate gene expression. […] The DBD and AD are separately fused to the two protein components of a CID such that, only in the presence of the small molecule inducer, the AD is brought into close proximity to the DBD, recruiting the transcription machinery to a promoter harbouring the DBD recognition sites. The iDimerize regulated transcription system (Takara) provides two vectors, pHet-Act1-2 and pZFHD1-Luciferase. The pHet-Act1-2 vector encodes two fusion proteins that represent a positive control: one is a fusion between FRB (T82L mutant; DmrC) and an activation domain (AD) from human p65 (SEQ ID NO: 42); the other is a fusion protein comprised of a DNA binding domain (ZFHD1) (SEQ ID NO: 43) fused to three tandem copies of FKBP12 (DmrA). These sequences are preceded by a CMV promoter and separated by an internal ribosome entry site (IRES). The ZFHD1 vector encodes luciferase preceded by an inducible promoter consisting of 12 copies of the recognition sequence of the ZFHD1 DBD upstream of a minimal IL-2 promoter. Binding of the DBD to its recognition sequence and recruitment of the transcriptional machinery by the AD initiates transcription of the luciferase reporter gene. The DNA sequence encoding HCV NS3/4A PR (S139A) was purchased as a DNA string from GeneArt and cloned into the pHet-Act1-2 vector as either an N-terminal fusion partner to the activation domain (SEQ ID NO: 44) (replacing FRB) or as a C-terminal fusion partner to the DNA binding domain (SEQ ID NO: 45) (replacing FKBP12) with flexible linkers (TGGGGSGGGGS (SEQ ID NO: 185) and SA, respectively) between the fusion partners. Subsequently, sequences encoding one copy of a panel of 12 PRSIM molecules (Table 2) were purchased as DNA strings from GeneArt and were cloned using Gibson assembly into the HCV NS3/4A PR (S139A)-containing pHetAct1-2 constructs described above, as a fusion partner to either the DBD (SEQ ID NOS: 46-56) or AD (SEQ ID NOS: 57-67), respectively. An equivalent construct was generated to replace the three copies of FKBP12 in pHet-Act1-2 with a single copy of FKBP12. The sequence of the constructs encoding both activation domain and DNA-binding domain fusion proteins was confirmed by Sanger sequencing of the entire coding region.
Sequences encoding the three HCV NS3/4A PR (S139A) mutants (Table 6) were purchased as DNA strings from GeneArt and were cloned using Gibson assembly into the pHetAct1-2 HCV NS3/4A PR (S139A)-PRSIM_23 (3 tandem copy) construct described above as a fusion partner to the AD (SEQ ID NOs: 211-216).
All transcriptional regulation assays were performed in adherent HEK293 cells cultured in 384-well plates. Cells enzymatically dissociated from a tissue culture flask were counted and plated at 7.5×10^3 cells/well in a 384-well plate. The plates were incubated overnight at 37° C. with 5% CO2 to allow the cells to adhere. On day 2, the cells were co-transfected with a pHet-Act1-2 plasmid (containing the FRB:FKBP12 control fusion proteins (Clontech) or the HCV NS3/4A PR (S139A):PRSIM fusion proteins) and a pZFHD1 plasmid (encoding either luciferase (Clontech) or NanoLuc-PEST (as described above)) using Lipofectamine LTX (ThermoFisher). On day 3, wells were treated with different concentrations of either A/C heterodimeriser (for the FRB:FKBP12 control), simeprevir or with vehicle control, and 24 hours later luminescence was quantified with an Envision plate reader immediately following addition of SteadyGlo luciferase substrate (Promega) or Nano-Glo Vivazine luciferase substrate (Promega). Alternatively, reverse transfections were carried out on Day 1, addition of dimeriser on Day 2 and luminescence quantified 24 hours later on Day 3.
Luminescence readings were converted into fold-change by dividing the signal in the presence of simeprevir by that in the absence of simeprevir.

B1: “WT” S139A: HCV NS3/4A protease with active site mutation S139A, SEQ ID NO: 2 (protein)
chain: MKKKGSVVIVGRINLSGDTAYAQQTRGEEGCQETSQTGRDKNQVEGEVQIVSTATQTFLATSINGVLWTVYHGAGTRTIASPKGPVTQMYTNVDKDLVGWQAPQGSRSLTPCTCGSSDLYLVTRHADVIPVRRRGDSRGSLLSPRPISYLKGSAGGPLLCPAGHAVGIFRAAVSTRGVAKAVDFIPVESLETTMRSP
modifications: HCV NS3/4A PR (S139A)
GFP fluorescence after simeprevir removal [1]: retained high GFP-fluorescence over 24 h
enzymatic activity [2]: No enzymatic activity could be detected at most concentrations tested
Max fold change [3]: 6973

Reference: patent publication US20220380801A1, “TRIPARTITE SYSTEMS FOR PROTEIN DIMERIZATION AND METHODS OF USE” (priority 2019, published 2022)
